Results: IntAct's records for PubMed 20473270

B1: Zinc finger HIT domain-containing protein 1 (Homo sapiens), O43257 (parent)
chain: MVEKKTSVRSQDPGQRRVLDRAARQRRINRQLEALENDNFQDDPHAGLPQLGKRLPQFDDDADTGKKKKKTRGDHFKLRFRKNFQALLEEQNLSVAEGPNYLTACAGPPSRPQRPFCAVCGFPSPYTCVSCGARYCTVRCLGTHQETRCLKWTV

Variants of: B1
Settings: with arp6_human ACTR6, Q9GZN1
arp6_human ACTR6, Q9GZN1, sequence (Q9GZN1 whole entry): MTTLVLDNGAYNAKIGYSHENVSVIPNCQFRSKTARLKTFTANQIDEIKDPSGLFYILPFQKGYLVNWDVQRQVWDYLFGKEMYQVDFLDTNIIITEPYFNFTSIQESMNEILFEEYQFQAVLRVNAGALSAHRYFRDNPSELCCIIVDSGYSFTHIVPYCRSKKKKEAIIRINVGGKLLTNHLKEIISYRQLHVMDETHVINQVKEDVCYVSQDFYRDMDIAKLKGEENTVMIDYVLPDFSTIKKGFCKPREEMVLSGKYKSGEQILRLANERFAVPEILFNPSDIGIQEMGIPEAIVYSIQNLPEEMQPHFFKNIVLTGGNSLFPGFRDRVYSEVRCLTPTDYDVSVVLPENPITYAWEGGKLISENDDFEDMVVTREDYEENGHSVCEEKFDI

Effect of a mutation on the interaction, disrupting interaction:
T103A
T71A
T6A
T64A
